Source: patent publication US20230167423A1, “RING NUCLEASE” (priority 2019, published 2023)
“Also recorded” adds a separate entry of the source. Like-named read-outs stand apart in the source and are kept apart here.

Tests used:
[1] = system: cyclic-di-AMP; assay: Substrate specificity of ring nuclease by TLC: cyclic-di-AMP; format: biochemical; conditions: multiple-turnover, 49 μM protein, 450 μM substrate, 70° C.
Protocol: (§1) The reactions were then deproteinised by phenol-chloroform extraction followed by chloroform extraction and products separated by TLC. Substrate degradation was visualised and imaged under short-wave ([…]) UV light.

[2] = system: HEPN ribonuclease StCsm6′; assay: cA6 degradation, deactivation of cA6-activated HEPN ribonuclease StCsm6′; format: biochemical, S. thermophilus
Protocol: Ring nuclease (Tsac_2833, 2 μM dimer) was incubated with the indicated concentration of cA6 for 60 min at 37° C. […] Control c1 is RNA in the absence of protein, c2 is RNA incubated with Tsac_2833 and c3 is RNA incubated with StCsm6′ in the absence of cA6 activator. vRN—ring nuclease.
Ring nuclease (SIRV1_114a, 2 μM; labelled “vRN”) was incubated with the indicated concentration of cA6 for 20 or 60 min at 70° C. and cooled on ice for 5 min.
When investigating cA6 degradation capacity, THSA-485A Tsac_2833 (2 μM dimer) was incubated with cA6 (50-0.5 μM) for 20 min or 60 min at 37° C. prior to adding 0.5 μM dimer StCsm6′ and 50 nM radio-labelled RNA A1. Reactions were then left to proceed for 60 min at 37° C. before quenching reactions by phenol-chloroform extraction and visualising RNA degradation by phosphor imaging following denaturing PAGE.
A deactivation assay was carried out using the S. thermophilus HEPN ribonuclease StCsm6′, a ribonuclease activated by cA6.

[3] = system: cyclic-CAMP; assay: Substrate specificity of ring nuclease by TLC: cyclic-CAMP; format: biochemical; conditions: multiple-turnover, 49 μM protein, 450 μM substrate, 70° C.
Protocol: as §1

[4] = biological target: T1, HEPN family ribonuclease Csx1 (Saccharolobus solfataricus, UniProt Q97YD5); assay: Deactivation of HEPN nuclease Csx1 in coupled assay with Csm complex and A26 RNA target; format: biochemical, Sulfolobus solfataricus
T1 sequence (Q97YD5 1-377): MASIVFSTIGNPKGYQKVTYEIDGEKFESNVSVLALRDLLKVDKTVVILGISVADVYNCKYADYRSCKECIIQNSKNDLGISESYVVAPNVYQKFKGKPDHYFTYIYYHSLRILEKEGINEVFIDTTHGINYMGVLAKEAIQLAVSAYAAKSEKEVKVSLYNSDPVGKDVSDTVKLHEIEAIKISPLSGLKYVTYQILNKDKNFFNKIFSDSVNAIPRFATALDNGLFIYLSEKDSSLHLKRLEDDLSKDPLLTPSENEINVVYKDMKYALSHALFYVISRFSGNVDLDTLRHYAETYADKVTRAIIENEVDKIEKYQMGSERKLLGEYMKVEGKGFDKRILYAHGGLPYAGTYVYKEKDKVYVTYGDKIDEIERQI
Protocol: FIG. 4. Comparison of the kinetics of the ring nucleases disclosed herein and cellular ring nucleases in deactivating the type III CRISPR defence. • a) Top panel is a phosphor image of denaturing polyacrylamide gel electrophoresis showing activation of HEPN family ribonuclease Csx1 (0.5 μM dimer) and consequent radioactively labelled RNA A1 cleavage in a coupled assay containing type III Csm CRISPR complex carrying A26 CRISPR RNA when challenged by indicated amounts of A26 RNA target to initiate cA4 synthesis. RNA A1 is not a target of Csm. Each set of three lanes after the control (c) reaction with Csx1 and labelled non-target RNA alone, is first in the absence and then the presence the ring nuclease SIRV1 gp29 (labelled “vRN”) or S. solfataricus cellular ring nuclease (cRN) Sso2081 (2 μM dimer), respectively. Whereas the SIRV1 gp29 ring nuclease is able to degrade all cA4 generated with up to 50 nM RNA A26 target, the cellular ring nuclease deactivates Csx1 and protects substrate RNA from degradation only when less than 5 nM A26 RNA target is used to initiate cA4 synthesis. Bottom panel is a phosphor image of thin-layer chromatography with reactions as above but visualizes cA4 production, by a-ATP incorporation, in the presence of indicated amounts of A26 RNA target and absence or presence of either SIRV1 gp29 or cellular ring nuclease. […]

[5] = system: cA6; assay: Substrate specificity of ring nuclease by TLC: cA6; format: biochemical; conditions: multiple-turnover, 49 μM protein, 450 μM substrate, 70° C.
Protocol: as §1

[6] = system: cA4; assay: Radiolabelled cA4 cleavage assay, single turnover kinetics; format: biochemical; conditions: for cA4 cleavage single turnover rate constant: 50° C., 4 μM protein dimer, Csx1 buffer; for cA4 cleavage / ring nuclease activity in vitro: 37° C., recombinant protein (FIG. 5)
[7] = system: cyclic-di-GMP; assay: Substrate specificity of ring nuclease by TLC: cyclic-di-GMP; format: biochemical; conditions: multiple-turnover, 49 μM protein, 450 μM substrate, 70° C.
Protocol: as §1

[8] = system: cA4; assay: Substrate specificity of ring nuclease by TLC: cA4; format: biochemical; conditions: multiple-turnover, 49 μM protein, 450 μM substrate, 70° C.
Protocol: as §1

[9] = system: cA4; assay: cA4 degradation capacity: Csx1 activation by HPLC-purified cA4 and deactivation by ring nuclease; format: biochemical; conditions: ring nuclease 2 μM dimer, Csx1 0.5 μM dimer
Protocol: FIG. 4. […] RNA A1 is not a target of Csm. Each set of three lanes after the control (c) reaction with Csx1 and labelled non-target RNA alone, is first in the absence and then the presence the ring nuclease SIRV1 gp29 (labelled “vRN”) or S. solfataricus cellular ring nuclease (cRN) Sso2081 (2 μM dimer), respectively. Whereas the SIRV1 gp29 ring nuclease is able to degrade all cA4 generated with up to 50 nM RNA A26 target, the cellular ring nuclease deactivates Csx1 and protects substrate RNA from degradation only when less than 5 nM A26 RNA target is used to initiate cA4 synthesis. Bottom panel is a phosphor image of thin-layer chromatography with reactions as above but visualizes cA4 production, by a-ATP incorporation, in the presence of indicated amounts of A26 RNA target and absence or presence of either SIRV1 gp29 or cellular ring nuclease. Csx1 deactivation correlated with complete cA4 degradation. • b) Denaturing gel electrophoresis visualising activation of Csx1 (0.5 μM dimer) by indicated amounts of HPLC-purified cA4 (BIOLOG Life Sciences) and its subsequent deactivation when either SIRV1 gp29 ring nuclease (“vRN”) or cellular ring nuclease (2 μM dimer) is present to degrade cA4. The SIRV1 gp29 ring nuclease degrades 100-fold more cA4 than the cellular ring nuclease. Control reactions (c) show RNA incubated with SIRV1 gp29 or Csx1 in the absence of cA4, respectively. […]

[10] = system: cyclic-AMP; assay: Substrate specificity of ring nuclease by TLC: cyclic-AMP; format: biochemical; conditions: multiple-turnover, 49 μM protein, 450 μM substrate, 70° C.
Protocol: as §1

[11] = system: recombinant type III CRISPR system from Mycobacterium tuberculosis; format: cell-based, Escherichia coli

B1: SIRV1 gp29: DUF1874 ring nuclease, ORF 114a of Sulfolobus islandicus rudivirus 1 (SIRV1), SEQ ID NO. 7 (protein, listed as Archael virus)
chain: MNKVYLANAFSINMLTKFPTKVVIDKIDRLEFCENIDNEDIINSIGHDSTIQLINSLCGTTFQKNRVEIKLEKEDKLYVVQISQRLEEGKILTLEEILKLYESGKVQFFEIIVD
[1]
  degradation of cyclic-di-AMP (TLC): does not degrade; also recorded: does not recognise
[2]; 2 μM pre-incubated with cA6 for 20 or 60 min at 70° C.
  cA6 degradation: protection of substrate RNA from StCsm6′: clear inhibition of substrate RNA cleavage
[2]; 2 μM pre-incubated with cA6 for 20 or 60 min at 70° C., listed as SIRV1_114a
  cA6 degradation: protection of substrate RNA from StCsm6′: protection of the substrate RNA
[3]
  degradation of cyclic-CAMP (TLC): does not degrade; also recorded: does not recognise
[4]; over a range of RNA and cA4 concentrations (FIG. 4)
  de-activation of cA4-activated HEPN nuclease Csx1 compared with cRN Sso2081: far more effectively
[4]; ring nuclease 2 μM dimer, Csx1 0.5 μM dimer, 70° C.
  amount of A26 RNA target up to which all generated cA4 is degraded / Csx1 deactivated: up to 50 nM
[5]
  degradation of cA6 (TLC): rapidly degrades; also recorded: specific for the degradation
[6]
  cA4 cleavage single turnover rate constant: 7 ± 1 min⁻¹
[6]; listed as SIRV1 gp29 (orf 114a)
  cA4 cleavage single turnover rate constant: 7.4 min⁻¹
[7]
  degradation of cyclic-di-GMP (TLC): does not degrade; also recorded: does not recognise
[8]
  degradation of cA4 (TLC): rapidly degrades; also recorded: specific for the degradation
[9]
  amount of cA4 degraded relative to cellular ring nuclease: 100 fold
[10]
  degradation of cyclic-AMP (TLC): does not degrade

B2: B. subtilis yddf: DUF1874 protein encoded by gene yddF of Bacillus subtilis, prophage origin, SEQ ID NO. 15 (protein, listed as Archael virus)
chain: MEIAFLNSLVVTSPGFYKAEKITLDEVKQWLKHYDGRYKSFIGHKSTAQFLQKLLGIRIEQNRKTFRHMKYQKAICFSLYERYPENVLLTQRDLEKARYQFYLLTRLD
[6]
  cA4 cleavage / ring nuclease activity in vitro: cleave cA4 rapidly

B3: THSA-485A Tsac_2833: DUF1874 ring nuclease from Thermoanaerobacterium bacteriophage THSA-485A, SEQ ID NO. 6 (protein, listed as Archael virus)
chain: MFIANAFSLQMLSQFPAHIDIEEVATSAVAKLDLQSAIGHADTAVVLSGILGKDIESNRVNVQLQPGDSLIVAQLMGGRLPEGSTTLPAGFSFKFFKVTVQA
[2]; 2 μM dimer pre-incubated with cA6 at 37° C.
  cA6 degradation: protection of substrate RNA from StCsm6′: protection of the substrate RNA; also recorded: Clear inhibition of substrate RNA cleavage
[6]
  cA4 cleavage / ring nuclease activity in vitro: cleave cA4 rapidly
[11]
  effect on cA4-mediated type III CRISPR immunity (plasmid transformation): overcomes type III CRISPR immunity
[11]; listed as Tsac_2833
  effect on cA4-mediated type III CRISPR immunity (plasmid transformation): effective in neutralising a cA4-mediated CRISPR defence; also recorded: reduced immunity for cA4-mediated CRISPR defence

B4: Crenothrix polyspora: DUF1874 protein, sequence WP_087145848.1 from the bacterium Crenothrix polyspora, SEQ ID NO. 16 (protein, listed as Crenothrix polyspora)
chain: MTLFIINAPILTSYGDWRFEGPLSIDKTRKLLREGFTSAIGHAASAEMLARLLAMDIPVNRIAITMEAGDRALILRLLQRLPEGKVLNHHEMMATPFELALLTKLK
[6]
  cA4 cleavage / ring nuclease activity in vitro: cleave cA4 rapidly
